Experimental data: a protein production outcome set (Wang et al. 2014)

Test: label from the status in PepcDB records

Sequence | protein production
MLSTTTIGFPRIGNQRQLKFAMESYFKGDSGEAELLAVAHKVQSDAWALQKAAGIAVIGLDGTLYDQVLDTITWLGAIPPRFKHLSGLQRYYAMARGGAALDMSKFFDTNYHYLVPELGPDVLGPATAAGAPLQPDFSGPLDKLARGQAVVGRERAVPILIGPVTFVSLSRGCELPLDQAVARLLPTYCALLQQLAAAGAPEVQLHEPVLATSEGAGMRAEFETAYAQMAQAAGSVPLHLVTYYDDLGAAYPWAVQLPVAAVTLDFLGPPGAAVPSQTLALLQQHGFPADKRLGAGVVDGRSVWKDDGTAVALLRALLDTGAVSSDRLVVTSSAPLQHLPYDLGLELEAPKTPEAEPHLPPALAARLGFAKQKVEEIVSVARLAASPAAAAAAAGHGAVVQLQRLQQGKGVEDHTADIPAEWFSRPKPYDVRREQQLQLPAFPTTTIGSFPQTAEVRRLRQQLKSGRLTQAEYEGLIAGHIAHAVGVQEALGIDVLVHGEAERTDMVEYFGMQLGGMLFTRAGWVQSYGSRCVRPPLVVDDITYRGPMTCWEYKVASAYTRKPVKGMLTGPVTILNWSFPRKDISRAAQAMQLGLALRQEVAALEAAGCTIIQVDDPALREGLPLKRERWASYLSWAVDAFRLCTGVAAAGTQVVTHLCYSDFQDILPAIDRMDADVLTIENSRSDNAMMAALAAAGYGRDIGPGVYDVHSPVVPSVEFIKSRIRSFVDSGILSGRYDRIWVNPDCGLKTRGWPETIAALRNMVEAAAQARAELQLAGGAAVAPVAGGVEAAGKGAALGAAAGTSRCVDCCH | not failed
MLSVFLEIIYERQLRKINLKILTDFINLIKEESLSNGAEFIQVQGGFYFLFKKKSIAYAFSTARFLYNVNKILISYKNKISEVRCITDYYEEDVSNEALFESLSLYKKQLIPEMGMFASREAANKLSKYIDFNETDSSILLCNAFKFFENINLTSNKNADKNASIILHRNDNYFWSIYNFILANPLDNDSLKAMSNEDRISFLATKNVYIYLKKHRFSKDMPQYFIDAFLTNAAIYLKNYIKKQNGRRSVKVLIDNLNDKKNLDEAEKIYAVNKYMEIEALDSSLPSIYNIPDDLLQLIYIILVSSKYFFYDEITDFLVSLNKSKAFFDDVYAWMYSMGIILVENNIYAVPYGLPEIIERRINLSKNMVDSNITEYLWAKYKKGILNANSDAEKIFDSLNFKCKPDFLLASIFHNYSDSSIEGLDLKKYKNEIFYDALKYYQNSIIANIDDSTAKSYAYLKTAIGFFQENKLESGEYRAFSLLAFFNLMQNKISDAITYFSYALDNAEHSHDTSFICDALFNISIVYFLQNNLKQSITFLDRLAAAVDEYFEQDWKIPYLFMKGRVYLQIGEFNKAADSFRMASDFADLYFDKIEPLCKSWYGRSLIYMGQIKNGQEILIKYIDYTDDALLFLLESFLFYPVLNNDFEKMDLDISSIYSAYNNSGLTDFINLKSGFSIAEDLIWSNIYDMSIGKKMFDAFYNYYNCKINFSKMYDIEECKILLSNLEASAVESLYQNDPYSSLYMYLCYDLSVKLYGENSSQTIAYLSKAFKSMQKNVLAIGENDIRDKYMQNNLWNSKLFKVAKNQKLI | failed
MLSYDIEVLKIINDEDNISQRRLAEMLNISLGKINSLLKELLTKEYIVKIDIDKRNVKYELTEAGIALLENSLDKVKSTKLSIHKHKFHKVKQAVILGAGGKGDFGKPAGFLELEEFRIIDRIIDILKSNGIEKIVIVNGYKKEYYEELAEKDSTIFCVTNSNYKWTGTMSSLALAKEYIDDDFILVENDLVFESRAVEQIIKNDNRDCVLITNESGSGDEAFVEIRDGYLFKMSKDVHQFNKIDGEMIGISKISYKLFKMMLEEFKHNINPYMNYEYTMLDVARNYKVGYEKINDLVWGEIDNKDQYEKVKKHIIPMIRRKEMQYKIDQVKSAIVNGLKVSEEEVKEIVPVGGMTNKNYKAFVNDKAYIVRIPGLGTSSMINRRDEMINSKLAADEGIDAKILFFDEESGVKIAELIEGAETLNPATAKKKENMELVVGALRTLHNSEIKMENRFNVFEKIEDYESLVKKVSGTLFEDYYEIKTRVLKLEKVLEDNGMEIKPCHNDTVPENFVKDINERMYLIDWEYSGLNDPMWDLAAHSIECDFSEDDEELFLNLYFNNLIEDKHKIRILVYKICQDFLWSIWTILKEAQGDDFGTYGIDRYNRGKKNLELLDKILMGQ | failed
MLSYDLNERLLTAVQSGDFEQALGCIMQGAQASYVSPTCGRTAVGTAAILGDAELLELLLQSCEEPELNVFHQSNTDSLEIERTPEGMEKLEWVDEFENSAENGAGSGEEDSQLYQYYAKTFETTGEFISSQCCVSCREHDPHLYDADVATPLHYAAYWGHEECVRILLEHNAPINVLNNDGYAPLHLGAGFAGVTELLIKHGALVNAKTLSDGKTALHMAIESKCAESARLLLQTNININDTDDDGETPLMAAIACSMLDVAEELVKRGARINIQDKQNHTALQYAVRGRHTQMAKLLLERGARRLASQHLLHLAVESNVKELVELLLQYGESLSVWNLKNFTPIMLAIHRGRHEMLEYLLNVAEEQRKLGLYSDVHDEGLVLFAVQQNFWVKEFSRILRVLLAKSPSARNDFYDSCAPTIVCGLIYCHTPLSRAINLHRLEVAEFLIHEGCNLAQICREHVVNELRSNCTPTRLAFARLLCNAGFQFPHKHRPLPKDWPPARLEFEREMCLLGTQPRSLQSLARLEIRRSLLRCLQTRPEVQERYLPTQERSSLGRIVDEFAIPATLKRYLSDFDELPPVRGMEPVDIPVVKWTESWD | failed
MLSYKHSNATLPILWGEAKRGDFDDLDKAFTQLLLTIGKHRLYTHHTPPYLCAFNAFKMEFIAFDDTITSFFYKSDIDFSITPSNHNTEGFKHALDAFKAMSKSHKFVFDFKTQSQECKEFIKNRLNSSHLLSKIQIDKNNFFTIYQKWLEIVKPTIDINWEVAKTKDILDADYYLADLLSDGDKTIIEKLHTILRSSHYKLNRGVNELGKMDFMEVGFTDSQQAHQEFWSVYERPPKREFQASILERRDLLVPSDVRERKGAFFTPKIWVEKSQEYLAKALGQDYQEDCIIWDCAGGTGNLLRGLLNKANLYLSTLDHNDVAIVKDLAAKNHLKLLENHVFQFDFLNDDFFSDKTPKSLQEILKDKEKRKKLIIYINPPYAEAGNKSKMSGTGEHKAKVARDNLICEKYKNELGKANNEVFAQFFMRIYKELNGVILASFSTLKNLQGSNFKKFREIFKAKFLEGFMVPADTFDNVRGQFPIGFLVWDTSSILPKENPLNLGGNSKEEKQNSNLILDQDNLKDNPLKERFCLLDINAPNRKMCSQSRTRTKGTQKHSTAAPFETPLHTVSLEIFDSFGGFLGSKKIYTHTIDKMLTLADYLQKFQPTKRDTIFGYLDPGRNSFQHQNLIHISIIDKSKQSHVKYFPIIATTILLVSVFFSIRHCIKATWQNDRDQFYAPYDDAFQDDSEFKNNCLIFMLFHTQNRITTAQGTNHFIPFSETEVNAKERYSSHALLEFLKGEIKELKENDSLFLSAKKENKPLKFSPSASKVFDASREVYRYYHTQDFTNRPYNANASLYDIKEFFQGRNKQGKLNLPAKAKDEYYKQLYANLQDALKDLAKEIQPKVYEYGFLRE | failed
MLTDRELLILEEIVREYTENGQPIGSKTLMNNLPVKVSSATIRNDMAKLEEMGLIEKMHSSSGRIPSLMGYRYYVDHLLSPKKLNQSEAQQIQKGLGMHFREVDDIVRTSAEMLSNLTHYTALTLKPDQKDATLDGFRMVPLGGNQVMLILVSSNGDVTSQQFSIPRGMNSETVERVLRIMNDRLIGETLDQVYYHLKTDIPKIVEHYLHSNDGIIDIFENVVAQSSQDRYFIGGKLNILNFSKNVDVSSIRGLLTLFNENDQLDGLLGNNQSDLDVKIGDELSNALLKDFSLITATYDVGSRGKGLIAILGPTSMQYSKTLGLLDTFRDQLSNRMLEYYKHLDDS | failed
MLTENYNKQAIAQAFGRAAGCYDRFAELQRTSGERLLALMPAHSGLQVLDAGCGTGHFSRYWRQAGRNVTALDLSAEMLAYAREQHAADRYLEGDIENLPLADSCVDICYSNLAVQWCDSLPRALGELYRITRPGGVIAFATLADGSLSELSQAWQRLDGTQRTNRFLPHSVIDAACQPYRHHLLQEREVCLFPDVLALMKSLKGIGATWLHEGRTPGLLSRARLAALSACYPQEQGGYPLSYQLVYGVIYRDLEHHHHHH | failed
MLTGIGAIVFDLDGTLYQSESLGGQIAACADRYLADLLSVSPEEAGEIVRRVRRELTARFGREASLSDACRELGGDLRELHRRFAAEVAPEPHLRRDSRVVQLLRTLGANRELYLYTNNNRALSGRIMDAIGVTGLFRRVVTIEDSWRPKPDLQALEALFAALGRKPSECLFVGDRYDIDLRLPAELGCSVYLSRTVDELLGLTLPLSEEQQ | failed
MLTIREIQSLVHKGEPGQWSHTKALYFFIAPSGRPFWAIRYMLKGRRRQMSLTDSIPATVRELKQIELLSETEREKVRKGIDPLAEREAAKAASPEPVRQLVTFKSVALDYIAANRGGWKNAKHVQQWENTLATYVYPVIGHLEPQSITTAEVLKILQPLWATKRETASRVRSRVETIIGAAKAKGMSEKPEIWANHHNPARWADNLEFWLNGKQEKNHFSAMPYPEIPAFAQSIAEREDYSTKALQFLILTATRTNETLGAEWSEIDTEKAVWTIPASRMKSGKEHRVPLSSEALKLVASLLRIEGNPYLFPGAIRNKSLSNMALLMVMRGLKLGHYVPHGFRSAFRDWAAEETVYPNHIVEMALAHTIKNKVEAAYRRGDLMEKRRQLMEDWSAYLASAR | failed
MLTKFKSLPKAVYAILALSFLLHVFCLVKQPGLDGELVKVTYGANDAFNYSLTAEQLLKHGVFGYVYLEPSEVPGKNAYITPGQPLLLAGAMIISDITSIPYYYVATVINMIMNLCTVLLVFLIGKELFEKNIYGIVASILYAIYPSNYTYFRTLLTEVPSIFLLALCVYVFVLAWKYNKVKFHIWFGIVVSILLMFRPNPAPMMLIPVLVVLFTYGFKDSIRIGLLWFIGPFFIIGAWVVRNYLALNQFILFSTQGADPLIAGADPFNKIGYENIVNEMRAKGLDDKGAYAKELIKNGFKTDFTYWFSWFTVGKTIELFKTAPAVDQYRIHNFMQLCHRVFIIGTFLSSFCFMLNSFKHKRVMMLVASSIIYIIFSNLFLAINRYGFFINPLMCLILAYGLIHIVQKLPFFRTNQA | failed
MLTNPTYGLTLHAQGPVPAEVFPLPTPPRSSRVPASTNRGGPPPQRGGPRPSGRPPRPPVRRKKPRWAMRAVTALSVVVLASAGIGHAVLSSLDSDISRFDAFKDMKNRPRAGDGMNVLMVGTDGRDEITEEERRKYRLGGAPCHCTDTIMIVHISEDRERASVVSLPRDSYAETPGHTDRTTGEHHKGHPIKLNAAYAEGGPQLTIRTVENMTRVKIDHYLEVDFTSFMKTVDVLGGVRICTVQPLKDSYTGLDLPAGSHTLMGGQALQYVRARHLDGASDLSRMKRQQRFLAALIDRATSSGILLNPLKFRDVTRAVLGSVRADQGFGTDELLTLGRAMRNFSPSSSEFTTVPIGQMGYAVKGVGSTLKWDPAKSERLFDALREDEPLAAPKPKGPAPVRVPVDPKQIRVQVENGTRTSGLGKRVDDALAATGFRTTRAPRNAEDRAVGRTVVAYDPRWDQSAKSLAAALPGSELKPVKGQGATLKVIAGADFEKVAKVRPADPPQESGTVVRGDEVVCGKE | failed
MLTNSINYSELSDVAAFVCVVQTGSFTAAAEQLNTSKSVISKYITRLEKRLGVKLLARTTRRLTLTEIGRTFYEGSRQGLEAIDNAEEAVSFLQGKPRGTLKINAPLSFGALHIAPALEEFIHRYPEMQIDLRFDDKKIDMIKDGFDLTVRITHQLEGNLIARRIAPCHHALVAAPNYLAKRGTPKRPEDLVAHNVITYQYQQSPWEWEFTAAKSKPKRVRVNGSVQMNNSLAIREAVLAGVGISRMPTFAVGEDIKSGRLIQLLPKYSLLEHSIYLVFPERNHMAPKTRAFIDYMVKIMEGKPSWDRF | failed
MLTNVVAVLLDGVHPFELGVVCEVFGIDRSDEGLPVYEFAVASAEGPTLRTHAGFSLRTEHGLERLETADLITLPAGNSYVSRGYPPELLDALRRAVDRGARLLSVCSGVFVLGAAGLLDGRRCAVHWHHADELARQYPKAIVEPDVLYVDEDPVITSAGTAAGIDACLHIVRKEQGPEVANAIARRMVVPPHRDGGQAQYIERPLPRSPCDTVGEVLVWMEQHLDEEVTVEQLAARAHMSPRTFARRFQQETGTTPYRWILRQRVLLAQRLLEVTDETMDAIAGRTGFGTAAALRHQFVRSLGTTPNAYRRTFRGPATGPLGLAG | failed
